Laboratory results reported in IntAct's records for PubMed 26900326.

B1: Molecular chaperone MKKS (Homo sapiens), Q9NPJ1 (parent)
chain: MSRLEAKKPSLCKSEPLTTERVRTTLSVLKRIVTSCYGPSGRLKQLHNGFGGYVCTTSQSSALLSHLLVTHPILKILTASIQNHVSSFSDCGLFTAILCCNLIENVQRLGLTPTTVIRLNKHLLSLCISYLKSETCGCRIPVDFSSTQILLCLVRSILTSKPACMLTRKETEHVSALILRAFLLTIPENAEGHIILGKSLIVPLKGQRVIDSTVLPGILIEMSEVQLMRLLPIKKSTALKVALFCTTLSGDTSDTGEGTVVVSYGVSLENAVLDQLLNLGRQLISDHVDLVLCQKVIHPSLKQFLNMHRIIAIDRIGVTLMEPLTKMTGTQPIGSLGSICPNSYGSVKDVCTAKFGSKHFFHLIPNEATICSLLLCNRNDTAWDELKLTCQTALHVLQLTLKEPWALLGGGCTETHLAAYIRHKTHNDPESILKDDECTQTELQLIAEAFCSALESVVGSLEHDGGEILTDMKYGHLWSVQADSPCVANWPDLLSQCGCGLYNSQEELNWSFLRSTRRPFVPQSCLPHEAVGSASNLTLDCLTAKLSGLQVAVETANLILDLSYVIEDKN
partner: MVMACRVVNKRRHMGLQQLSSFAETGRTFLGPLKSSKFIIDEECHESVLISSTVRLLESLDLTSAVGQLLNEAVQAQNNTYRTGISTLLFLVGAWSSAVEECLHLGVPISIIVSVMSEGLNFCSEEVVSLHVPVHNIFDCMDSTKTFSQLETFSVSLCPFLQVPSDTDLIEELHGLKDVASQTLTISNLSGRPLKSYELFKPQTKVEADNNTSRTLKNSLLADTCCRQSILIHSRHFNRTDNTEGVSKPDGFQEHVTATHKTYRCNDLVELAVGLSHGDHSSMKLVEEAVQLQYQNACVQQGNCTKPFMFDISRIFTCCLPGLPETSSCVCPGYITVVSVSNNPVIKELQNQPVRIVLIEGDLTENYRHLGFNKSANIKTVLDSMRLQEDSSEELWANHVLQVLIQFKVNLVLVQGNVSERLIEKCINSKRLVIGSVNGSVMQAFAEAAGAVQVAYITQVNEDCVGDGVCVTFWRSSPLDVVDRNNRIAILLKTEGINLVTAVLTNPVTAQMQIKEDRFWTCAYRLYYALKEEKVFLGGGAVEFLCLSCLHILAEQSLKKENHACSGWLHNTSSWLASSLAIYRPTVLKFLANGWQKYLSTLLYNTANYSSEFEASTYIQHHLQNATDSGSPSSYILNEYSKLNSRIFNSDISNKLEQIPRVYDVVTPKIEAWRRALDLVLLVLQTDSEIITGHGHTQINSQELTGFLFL

Variants of: B1
Conditions: with bbs12_human BBS12, Q6ZW61

| effect of a mutation on the interaction | Variant |
| --- | --- |
| disrupting interaction strength | T57A |
| decreasing interaction strength | H395R |
| decreasing interaction strength | L277P |
